Experimental findings from patent US20030077800A1 (HORMOS MEDICAL, published 2003) are described below.

In test [1] the target is rat androgen receptor expressed from pSG-rAR (rat) (UniProt P15207). Put plainly: cell-based or functional assay.
Test [2] concerns the target T1, rat AR (amino acids 3-902) fused to the DBD of Gal4 (Gal4-AR) (rat, UniProt P04386 1-147; P15207 3-902).
T1 construct: domain: DBD;range 3-902; Mammalian two-hybrid bait in CV-1 cells; also called Gal-AR
Put plainly: mammalian two-hybrid in CV-1 cells, pG5LUC reporter.

For test [3], the target named is T2, LexA-HLBD (amino acids 624-919 of AR) (UniProt P10275 624-919).
T2 sequence (looked up): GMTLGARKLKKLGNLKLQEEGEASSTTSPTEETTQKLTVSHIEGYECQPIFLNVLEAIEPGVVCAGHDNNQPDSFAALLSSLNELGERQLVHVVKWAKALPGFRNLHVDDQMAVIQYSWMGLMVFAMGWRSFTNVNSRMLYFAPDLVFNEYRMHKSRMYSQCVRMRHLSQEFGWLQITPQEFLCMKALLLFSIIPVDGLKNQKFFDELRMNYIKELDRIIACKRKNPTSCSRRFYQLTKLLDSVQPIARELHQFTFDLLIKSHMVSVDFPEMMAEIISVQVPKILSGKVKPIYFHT
Kind of test: cell-based or functional assay.

Test [4] deals with T3, LexA-AR ZFR (AR amino acids 554-644) (human, UniProt P10275 554-644).
T3 sequence (looked up): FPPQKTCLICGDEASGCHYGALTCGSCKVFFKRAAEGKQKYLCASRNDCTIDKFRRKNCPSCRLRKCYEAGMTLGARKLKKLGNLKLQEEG
Kind of test: cell-based or functional assay.

Sequence of rat androgen receptor expressed from pSG-rAR (rat) (P15207 whole entry S389L, the tested form may be a part): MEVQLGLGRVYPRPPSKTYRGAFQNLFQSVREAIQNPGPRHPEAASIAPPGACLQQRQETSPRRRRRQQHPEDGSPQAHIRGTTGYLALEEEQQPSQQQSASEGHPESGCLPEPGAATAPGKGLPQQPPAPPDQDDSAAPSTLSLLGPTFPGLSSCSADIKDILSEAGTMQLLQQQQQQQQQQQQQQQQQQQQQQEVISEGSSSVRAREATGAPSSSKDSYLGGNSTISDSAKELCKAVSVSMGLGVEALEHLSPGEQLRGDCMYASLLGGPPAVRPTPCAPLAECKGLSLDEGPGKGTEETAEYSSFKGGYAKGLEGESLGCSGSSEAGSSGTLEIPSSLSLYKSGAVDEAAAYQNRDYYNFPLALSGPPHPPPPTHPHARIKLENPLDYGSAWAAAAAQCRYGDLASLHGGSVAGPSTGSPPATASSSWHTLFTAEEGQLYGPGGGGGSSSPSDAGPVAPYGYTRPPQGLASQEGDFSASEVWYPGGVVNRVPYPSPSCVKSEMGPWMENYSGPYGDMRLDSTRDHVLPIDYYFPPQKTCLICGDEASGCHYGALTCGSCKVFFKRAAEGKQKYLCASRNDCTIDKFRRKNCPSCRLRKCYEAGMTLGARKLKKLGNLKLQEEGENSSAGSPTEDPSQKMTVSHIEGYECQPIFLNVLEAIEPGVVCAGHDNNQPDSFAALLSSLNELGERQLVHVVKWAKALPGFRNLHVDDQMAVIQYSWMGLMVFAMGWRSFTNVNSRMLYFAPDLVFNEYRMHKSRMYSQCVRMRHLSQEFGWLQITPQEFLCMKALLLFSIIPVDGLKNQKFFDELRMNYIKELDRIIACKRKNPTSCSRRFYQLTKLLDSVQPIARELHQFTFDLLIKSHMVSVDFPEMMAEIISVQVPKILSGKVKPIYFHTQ

“FLAG-tagged ARIP4 (pFLAG-ARIP4) (from UniProt Q99NG0 1-1467)”: in test [1], the AR activity on the probasin promoter (pPB(-285/+32)-LUC, COS-1 cells) (% of that of AR alone) fell in the range of 50 to 60 and the transcriptional activity of AR on a minimal promoter (ARE4-tk-LUC, COS-1 cells) was 3 fold.

B1: VP16-ODC fusion protein (human ornithine decarboxylase fused to VP16 AD) (other)
chain: MNNFGNEEFDCHFLDEGFTAKDILDQKINEVSSSDDKDAFYVADLGDILKKHLRWLKALPRVTPFYAVKCNDSKAIVKTLAATGTGFDCASKTEIQLVQSLGVPPERIIYANPCKQVSQIKYAANNGVQMMTFDSEVELMKVARAHPKAKLVLRIATDDSKAVCRLSVKFGATLRTSRLLLERAKELNIDVVGVSFHVGSGCTDPETFVQAISDARCVFDMGAEVGFSMYLLDIGGGFPGSEDVKLKFEEITGVINPALDKYFPSDSGVRIIAEPGRYYVASAFTLAVNIIAKKIVLKEQTGSDDEDESSEQTFMYYVNDGVYGSFNCILYDHAHVKPLLQKRPKPDEKYYSSSIWGPTCDGLDRIVERCDLPEMHVGDWMLFENMGAYTVAAASTFNGFQRPTIYYVMSGPAWQLMQQFQNPDFPPEVEEQDASTLPVSCAWESGMKRHRAACASASINV
notes: Negative control in the mammalian two-hybrid assay; also called human ODC
Consider B1, for which, in test [2], the binding result was “no binding”.

B2: VP16 AD fused to ARIP4 (amino acids 86-227) (VP16 AD-ARIP4 ID) (other)
chain: RHQGKILASEDPKKKRAQKPSHMRRNIRKLLREDQLEPVTKAAQQEELERRKRLEQQRKEYAAPIPTVPLEFLPEEIVLRASDGPQLPPRVLAQEVICLDSSSGSEDEKSSRDEVIELSSGEEDTLHIVDSSESVSEEDEEE
With B2, the “reporter gene activity (beta-galactosidase, yeast two-hybrid, with androgen)” value in test [3] worked out at 4 fold. The “reporter gene activity (beta-galactosidase, yeast two-hybrid)” value in test [4] is ~100 fold.
